Experimental data taken from article PMC11594144.

Assays:
[1] = target: Vip3Aa64 protoxin, wild type (Bacillus thuringiensis); assay: AUC
[2] = target: Vip3Aa64 protoxin, wild type (Bacillus thuringiensis); assay: mass photometry

Vip3Aa64 protoxin, wild type (natural protein)
stoichiometry N [1]: 4
stoichiometry N [2]: 4
